# Measurements as given in patent US5260280A (priority 1989, dated 1993).
# Where “and” joins values, the source holds several entries; their conditions need not be identical. Equal entries are not always repeated.
# B1: lactoferrin (protein, UniProt P24627 20-708, looked up)
# Lactotransferrin: APRKNVRWCTISQPEWFKCRRWQWRMKKLGAPSITCVRRAFALECIRAIAEKKADAVTLDGGMVFEAGRDPYKLRPVAAEIYGTKESPQTHYYAVAVVKKGSNFQLDQLQGRKSCHTGLGRSAGWIIPMGILRPYLSWTESLEPLQGAVAKFFSASCVPCIDRQAYPNLCQLCKGEGENQCACSSREPYFGYSGAFKCLQDGAGDVAFVKETTVFENLPEKADRDQYELLCLNNSRAPVDAFKECHLAQVPSHAVVARSVDGKEDLIWKLLSKAQEKFGKNKSRSFQLFGSPPGQRDLLFKDSALGFLRIPSKVDSALYLGSRYLTTLKNLRETAEEVKARYTRVVWCAVGPEEQKKCQQWSQQSGQNVTCATASTTDDCIVLVLKGEADALNLDGGYIYTAGKCGLVPVLAENRKSSKHSSLDCVLRPTEGYLAVAVVKKANEGLTWNSLKDKKSCHTAVDRTAGWNIPMGLIVNQTGSCAFDEFFSQSCAPGADPKSRLCALCAGDDQGLDKCVPNSKEKYYGYTGAFRCLAEDVGDVAFVKNDTVWENTNGESTADWAKNLNREDFRLLCLDGTRKPVTEAQSCHLAVAPNHAVVSRSDRAAHVKQVLLHQQALFGKNGKNCPDKFCLFKSETKNLLFNDNTECLAKLGGRPTYEEYLGTEYVTAIANLKKCSTSPLLEACAFLTR
# Columns and labels:
# [1] = molecular target: cholera toxin CT (Vibrio cholerae, UniProt P01556); type: cell-based
# [2] = molecular target: enterotoxin CFA/I(LT-1) (Escherichia coli, UniProt D0Z6T1); type: cell-based, E. coli
# [3] = molecular target: enterotoxin CFA/II(LT-II) (Escherichia coli, UniProt P0CK94); type: cell-based, E. coli
# [4] = molecular target: cholera toxin B-subunits (Vibrio cholerae, UniProt P01556); type: binding
# [5] = tested on: enterotoxin LT-I; set-up: species or system E. coli; conditions: in vivo, po
molecule,measurement,setting,value
B1,neutralization of the toxicity of CT against CHO-Kl cells (morphological alteration),[1],neutralized the toxicity
same,neutralization of the toxicity of LT-I against CHO-Kl cells (morphological alteration),[2],neutralized the toxicity
same,neutralization of the toxicity of LT-II against CHO-Kl cells (morphological alteration),[3],neutralized the toxicity
same,interference with the binding of the cholera toxin B-subunits to GM1,[4],interfered with the binding
same,Rate of diarrhea,[5],40% and 20%
